Measured values published in US20170002361A1.

Molecular target: Flag-tagged NS5B (hepatitis C virus)
Assay: cell-based or functional assay

Substance: protein kinase C-related kinase 2 (PRK2) (from UniProt Q16513 1-984) (enzyme)
- level of p-NS5B (32P-orthophosphate metabolic labeling, immunoprecipitation, autoradiography) after PRK2 silencing with siPRK2-1: 55%
